According to article PMC10018343 (Nucleic Acids Research, 2023):

T1: biotinylated Bre1^R6BR (Bre1 amino acids 1-212 with AviTag) (S. cerevisiae, UniProt Q07457 1-212, biotin on the AviTag)
T1 sequence (looked up): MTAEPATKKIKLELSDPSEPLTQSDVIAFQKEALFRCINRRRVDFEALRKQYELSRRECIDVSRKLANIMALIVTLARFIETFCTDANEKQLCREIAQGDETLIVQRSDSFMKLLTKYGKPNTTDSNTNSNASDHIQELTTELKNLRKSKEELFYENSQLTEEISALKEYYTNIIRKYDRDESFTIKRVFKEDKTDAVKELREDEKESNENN

B1: His6Rad6 (wild type), purified alone as BLI analyte (enzyme, S. cerevisiae, UniProt P06104 1-172, looked up)
chain: MSTPARRRLMRDFKRMKEDAPPGVSASPLPDNVMVWNAMIIGPADTPYEDGTFRLLLEFDEEYPNKPPHVKFLSEMFHPNVYANGEICLDILQNRWTPTYDVASILTSIQSLFNDPNPASPANVEAATLFKDHKSQYVKRVKETVEKSWEDDMDDMDDDDDDDDDDDDDEAD
B2: Bre1^R6BR (Bre1 amino acids 1-212, Rad6-binding region) (domain or fragment, S. cerevisiae, UniProt Q07457 1-212, looked up)
chain: T1 sequence (looked up)
B3: His6Rad6 (amino acids 1-150), co-expressed with Bre1^R6BR (enzyme, S. cerevisiae, UniProt P06104 1-150, looked up)
chain: MSTPARRRLMRDFKRMKEDAPPGVSASPLPDNVMVWNAMIIGPADTPYEDGTFRLLLEFDEEYPNKPPHVKFLSEMFHPNVYANGEICLDILQNRWTPTYDVASILTSIQSLFNDPNPASPANVEAATLFKDHKSQYVKRVKETVEKSWE

Columns and labels:
[1] = biological target: T1, biotinylated Bre1^R6BR (Bre1 amino …); assay: BLI
SEC-MALS = biological target: the molecule itself; assay: SEC-MALS
[2] = biological target: B2; assay: SEC-MALS

Binder: B1
Kd [1]: 112 nM

Binder: B2
stoichiometry N (SEC-MALS): 2

Binder: B3
stoichiometry N [2]: 0.5 Rad6 per Bre1^R6BR subunit
